Tests used:
T-01 MB IgG1 I253A = assay: BLI, His-tagged receptor on Ni-NTA;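 note: octet RED96 biolayer interferometry of Fc-mutant Multabodies binding human FcγRI, FcγRIIa or FcγRIIb, with the His-tagged receptors captured on Ni-NTA biosensors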
Description: (§1) The binding kinetics and affinity to Fc receptors—human Fcγ receptor I (hFcγRI), hFcγRIIa, and hFcγRIIb—of Multabodies comprising different Fc mutations were determined by biolayer interferometry (BLI) using an Octet RED96 BLI system (Pall ForteBio).
(§2) Briefly, His-tagged Fc receptors were loaded onto Ni-NTA biosensors to reach a signal response of 0.8 nm.

[1] = target: T1, T-01 MB IgG1 L234A L235A (LALA); assay: BLI, His-tagged receptor on Ni-NTA;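 note: octet RED96 biolayer interferometry of Fc-mutant Multabodies binding human FcγRI, FcγRIIa or FcγRIIb, with the His-tagged receptors captured on Ni-NTA biosensors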
T1 construct: also called T-01 MB IgG1 LALA
Description: as §1, §2

T-01 MB IgG1 WT = target: T2, T-01 MB IgG1 WT; assay: BLI, His-tagged receptor on Ni-NTA;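 note: octet RED96 biolayer interferometry of Fc-mutant Multabodies binding human FcγRI, FcγRIIa or FcγRIIb, with the His-tagged receptors captured on Ni-NTA biosensors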
T2 construct: also called T-01 MB with wild-type IgG1 Fc
Description: as §1, §2

T-01 MB IgG4 WT = assay: BLI, His-tagged receptor on Ni-NTA;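 note: octet RED96 biolayer interferometry of Fc-mutant Multabodies binding human FcγRI, FcγRIIa or FcγRIIb, with the His-tagged receptors captured on Ni-NTA biosensors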
Description: as §1, §2

T-01 MB IgG2 WT = assay: BLI, His-tagged receptor on Ni-NTA
Description: as §1, §2

T-01 MB IgG1 P329G = assay: BLI, His-tagged receptor on Ni-NTA
Description: as §1, §2

T-01 MB IgG2 K288A P329G = assay: BLI, His-tagged receptor on Ni-NTA
Description: as §1, §2

T-01 MB IgG1 I253V = assay: BLI, His-tagged receptor on Ni-NTA
Description: as §1, §2

[2] = target: T-01 MB IgG1 LALA P329G (LALAP); assay: BLI, His-tagged receptor on Ni-NTA
Description: as §1, §2

T-01 MB IgG1 K288A = assay: BLI, His-tagged receptor on Ni-NTA
Description: as §1, §2

[3] = target: T3, T-01 MB.v2 IgG1 M428L N434S (LS); assay: BLI, His-tagged receptor on Ni-NTA
T3 construct: also called T-01 MB.v2 IgG1 LS
Description: as §1, §2

T-01 MB IgG1 LALAP I253A = target: T4, T-01 MB IgG1 LALAP I253A; assay: BLI, His-tagged receptor on Ni-NTA
T4 construct: also called I253A+LALAP
Description: as §1, §2

T-01 MB IgG1 LALAP K288A = target: T5, T-01 MB IgG1 LALAP K288A; assay: BLI, His-tagged receptor on Ni-NTA
T5 construct: also called K288A+LALAP
Description: as §1, §2

T-01 MB.v2 IgG1 WT = target: T6, T-01 MB.v2 IgG1 WT; assay: BLI, His-tagged receptor on Ni-NTA
T6 construct: also called Multabody v2
Description: as §1, §2

soluble CD4 = soluble CD4 (UniProt P01730 26-390); assay: BLI, His-tagged target on Ni-NTA
BG5050 SOSIP.664 D368R = target: T7, BG5050 SOSIP.664 D368R (HIV-1); assay: BLI, His-tagged target on Ni-NTA
T7 construct: also called BG505 SOSIP D368R; BG505 SOSIP.664_D368R trimer

B1: human Fcγ receptor I (hFcγRI) (receptor, UniProt P12314 16-288, looked up)
chain: QVDTTKAVITLQPPWVSVFQEETVTLHCEVLHLPGSSSTQWFLNGTATQTSTPSYRITSASVNDSGEYRCQRGLSGRSDPIQLEIHRGWLLLQVSSRVFTEGEPLALRCHAWKDKLVYNVLYYRNGKAFKFFHWNSNLTILKTNISHNGTYHCSGMGKHRYTSAGISVTVKELFPAPVLNASVTSPLLEGNLVTLSCETKLLLQRPGLQLYFSFYMGSKTLRGRNTSSEYQILTARREDSGLYWCEAATEDGNVLKRSPELELQVLGLQLPTP
With B1 the Kd (T-01 MB IgG1 I253A) was < 0.001 nM, the koff (T-01 MB IgG1 I253A) was < 1e-07 s⁻¹ and the kon (T-01 MB IgG1 I253A) was 605000 M⁻¹ s⁻¹. For the same binder, the Kd [1] was 0.0297 nM, the koff [1] was 1.66e-05 s⁻¹ and the kon [1] was 558000 M⁻¹ s⁻¹. The Kd (T-01 MB IgG1 WT) was < 0.001 nM, the koff (T-01 MB IgG1 WT) was < 1e-07 s⁻¹ and the kon (T-01 MB IgG1 WT) was 672000 M⁻¹ s⁻¹. For the same binder, the Kd (T-01 MB IgG4 WT) was < 0.001 nM, the koff (T-01 MB IgG4 WT) was < 1e-07 s⁻¹ and the kon (T-01 MB IgG4 WT) was 835000 M⁻¹ s⁻¹. For the same binder, the Kd (T-01 MB IgG2 WT) was 2.03 nM, the koff (T-01 MB IgG2 WT) was 0.00154 s⁻¹ and the kon (T-01 MB IgG2 WT) was 758000 M⁻¹ s⁻¹. For the same binder, the Kd (T-01 MB IgG1 P329G) was 0.0375 nM, the koff (T-01 MB IgG1 P329G) was 2.49e-05 s⁻¹ and the kon (T-01 MB IgG1 P329G) was 665000 M⁻¹ s⁻¹. It also gave a Kd (T-01 MB IgG2 K288A P329G) of 0.132 nM, a koff (T-01 MB IgG2 K288A P329G) of 9.13e-05 s⁻¹ and a kon (T-01 MB IgG2 K288A P329G) of 694000 M⁻¹ s⁻¹. For the same binder, the Kd (T-01 MB IgG1 I253V) was < 0.001 nM, the koff (T-01 MB IgG1 I253V) was < 1e-07 s⁻¹ and the kon (T-01 MB IgG1 I253V) was 756000 M⁻¹ s⁻¹. For the same binder, the Kd [2] was 0.684 nM, the koff [2] was 0.000437 s⁻¹ and the kon [2] was 639000 M⁻¹ s⁻¹. For the same binder, the Kd (T-01 MB IgG1 K288A) was < 0.001 nM, the koff (T-01 MB IgG1 K288A) was < 1e-07 s⁻¹ and the kon (T-01 MB IgG1 K288A) was 578000 M⁻¹ s⁻¹. For the same binder, the Kd [3] was < 0.001 nM, the koff [3] was < 1e-07 s⁻¹ and the kon [3] was 431000 M⁻¹ s⁻¹. The Kd (T-01 MB IgG1 LALAP I253A) was 0.768 nM, the koff (T-01 MB IgG1 LALAP I253A) was 0.000656 s⁻¹ and the kon (T-01 MB IgG1 LALAP I253A) was 853000 M⁻¹ s⁻¹. For the same binder, the Kd (T-01 MB IgG1 LALAP K288A) was 0.269 nM, the koff (T-01 MB IgG1 LALAP K288A) was 0.000161 s⁻¹ and the kon (T-01 MB IgG1 LALAP K288A) was 601000 M⁻¹ s⁻¹. The Kd (T-01 MB.v2 IgG1 WT) was < 0.001 nM, the koff (T-01 MB.v2 IgG1 WT) was < 1e-07 s⁻¹ and the kon (T-01 MB.v2 IgG1 WT) was 312000 M⁻¹ s⁻¹.

B2: human FcγRIIa (hFcγRIIa) (receptor, UniProt P12318 34-217, looked up)
chain: QAAAPPKAVLKLEPPWINVLQEDSVTLTCQGARSPESDSIQWFHNGNLIPTHTQPSYRFKANNNDSGEYTCQTGQTSLSDPVHLTVLSEWLVLQTPHLEFQEGETIMLRCHSWKDKPLVKVTFFQNGKSQKFSHLDPTFSIPQANHSHSGDYHCTGNIGYTLFSSKPVTITVQVPSMGSSSPMG
B2 was tested, and the Kd (T-01 MB IgG1 I253A) was < 0.001 nM, the koff (T-01 MB IgG1 I253A) was < 1e-07 s⁻¹ and the kon (T-01 MB IgG1 I253A) was 763000 M⁻¹ s⁻¹. The Kd [1] was 0.208 nM, the koff [1] was 0.000121 s⁻¹ and the kon [1] was 581000 M⁻¹ s⁻¹. For the same binder, the Kd (T-01 MB IgG1 WT) was < 0.001 nM, the koff (T-01 MB IgG1 WT) was < 1e-07 s⁻¹ and the kon (T-01 MB IgG1 WT) was 963000 M⁻¹ s⁻¹. The Kd (T-01 MB IgG4 WT) was 0.391 nM, the koff (T-01 MB IgG4 WT) was 0.000445 s⁻¹ and the kon (T-01 MB IgG4 WT) was 1.14e+06 M⁻¹ s⁻¹. It also gave a Kd (T-01 MB IgG2 WT) of 0.606 nM, a koff (T-01 MB IgG2 WT) of 0.000263 s⁻¹ and a kon (T-01 MB IgG2 WT) of 433000 M⁻¹ s⁻¹. The Kd (T-01 MB IgG1 P329G) was 0.249 nM, the koff (T-01 MB IgG1 P329G) was 5.53e-05 s⁻¹ and the kon (T-01 MB IgG1 P329G) was 222000 M⁻¹ s⁻¹. For the same binder, the binding result (T-01 MB IgG2 K288A P329G) was “no binding (tested: serial dilutions 20-0.65 nM)”, the Kd (T-01 MB IgG1 I253V) was < 0.001 nM and the koff (T-01 MB IgG1 I253V) was < 1e-07 s⁻¹. The kon (T-01 MB IgG1 I253V) was 1.09e+06 M⁻¹ s⁻¹, the binding result [2] was “no binding (tested: serial dilutions 20-0.65 nM)” and the Kd (T-01 MB IgG1 K288A) was < 0.001 nM. The koff (T-01 MB IgG1 K288A) was < 1e-07 s⁻¹, the kon (T-01 MB IgG1 K288A) was 1.07e+06 M⁻¹ s⁻¹ and the binding result [3] was “no binding (tested: serial dilutions 20-0.65 nM)”. B2: no binding (tested: serial dilutions 20-0.65 nM) (T-01 MB IgG1 LALAP I253A); no binding (tested: serial dilutions 20-0.65 nM) (T-01 MB IgG1 LALAP K288A); no binding (tested: serial dilutions 20-0.65 nM) (T-01 MB.v2 IgG1 WT).

B3: human FcγRIIb (hFcγRIIb) (receptor, UniProt P31994 43-217, looked up)
chain: TPAAPPKAVLKLEPQWINVLQEDSVTLTCRGTHSPESDSIQWFHNGNLIPTHTQPSYRFKANNNDSGEYTCQTGQTSLSDPVHLTVLSEWLVLQTPHLEFQEGETIVLRCHSWKDKPLVKVTFFQNGKSKKFSRSDPNFSIPQANHSHSGDYHCTGNIGYTLYSSKPVTITVQAP
B3 was tested, and the Kd (T-01 MB IgG1 I253A) was < 0.001 nM, the koff (T-01 MB IgG1 I253A) was < 1e-07 s⁻¹ and the kon (T-01 MB IgG1 I253A) was 1.39e+06 M⁻¹ s⁻¹. For the same binder, the Kd [1] was 0.607 nM, the koff [1] was 0.000394 s⁻¹ and the kon [1] was 649000 M⁻¹ s⁻¹. The Kd (T-01 MB IgG1 WT) was < 0.001 nM, the koff (T-01 MB IgG1 WT) was < 1e-07 s⁻¹ and the kon (T-01 MB IgG1 WT) was 1.19e+06 M⁻¹ s⁻¹. It also gave a Kd (T-01 MB IgG4 WT) of 0.223 nM, a koff (T-01 MB IgG4 WT) of 0.000305 s⁻¹ and a kon (T-01 MB IgG4 WT) of 1.37e+06 M⁻¹ s⁻¹. The Kd (T-01 MB IgG2 WT) was 1.61 nM, the koff (T-01 MB IgG2 WT) was 0.00103 s⁻¹ and the kon (T-01 MB IgG2 WT) was 637000 M⁻¹ s⁻¹. For the same binder, the binding result (T-01 MB IgG1 P329G) was “no binding (tested: serial dilutions 20-0.65 nM)”, the binding result (T-01 MB IgG2 K288A P329G) was “no binding (tested: serial dilutions 20-0.65 nM)” and the Kd (T-01 MB IgG1 I253V) was < 0.001 nM. For the same binder, the koff (T-01 MB IgG1 I253V) was < 1e-07 s⁻¹, the kon (T-01 MB IgG1 I253V) was 1.39e+06 M⁻¹ s⁻¹ and the binding result [2] was “no binding (tested: serial dilutions 20-0.65 nM)”. For the same binder, the Kd (T-01 MB IgG1 K288A) was < 0.001 nM, the koff (T-01 MB IgG1 K288A) was < 1e-07 s⁻¹ and the kon (T-01 MB IgG1 K288A) was 1.25e+06 M⁻¹ s⁻¹. B3: no binding (tested: serial dilutions 20-0.65 nM) [3]; no binding (tested: serial dilutions 20-0.65 nM) (T-01 MB IgG1 LALAP I253A); no binding (tested: serial dilutions 20-0.65 nM) (T-01 MB IgG1 LALAP K288A). B3: no binding (tested: serial dilutions 20-0.65 nM) (T-01 MB.v2 IgG1 WT).

B4: N49P7 IgG1 (antibody, V domains shown)
VH: ADLVQSGAVVKKPGDSVRISCEAQGYRFPDYIIHWIRRAPGQGPEWMGWMNPMGGQVNIPWKFQGRVSMTRDTSIETAFLDLRGLKSDDTAVYYCVRDRSNGSGKRFESSNWFLDLWGRGTAVTIQS
VL: QSALTQPRSVSASPGQSVTISCTGTHNLVSWCQHQPGRAPKLLIYDFNKRPSGVPDRFSGSGSGGTASLTITGLQDDDDAEYFCWAYEAFGGGTKLTVLG
B4: no binding (soluble CD4).

B5: PGDM1400 IgG1 (antibody, V domains shown)
VH: QAQLVQSGPEVRKPGTSVKVSCKAPGNTLKTYDLHWVRSVPGQGLQWMGWISHEGDKKVIVERFKAKVTIDWDRSTNTAYLQLSGLTSGDTAVYYCAKGSKHRLRDYALYDDDGALNWAVDVDYLSNLEFWGQGTAVTVSS
VL: DFVLTQSPHSLSVTPGESASISCKSSHSLIHGDRNNYLAWYVQKPGRSPQLLIYLASSRASGVPDRFSGSGSDKDFTLKISRVETEDVGTYYCMQGRESPWTFGQGTKVDIKR
Binder B5 has a Kd (BG5050 SOSIP.664 D368R) of 38 nM, a koff (BG5050 SOSIP.664 D368R) of 0.000262 s⁻¹ and a kon (BG5050 SOSIP.664 D368R) of 6900 M⁻¹ s⁻¹. B5: no binding (soluble CD4).

B6: 10E8v4 IgG1 (antibody, V domains shown)
VH: EVRLVESGGGLVKPGGSLRLSCSASGFDFDNAWMTWVRQPPGKGLEWVGRITGPGEGWSVDYAESVKGRFTISRDNTKNTLYLEMNNVRTEDTGYYFCARTGKYYDFWSGYPPGEEYFQDWGQGTLVIVSS
VL: SELTQDPAVSVALKQTVTITCRGDSLRSHYASWYQKKPGQAPVLLFYGKNNRPSGIPDRFSGSASGNRASLTITGAQAEDEADYYCSSRDKSGSRLSVFGGGTKLTVLS
B6: no binding (soluble CD4).

Reference: patent US20250276070A1 (HOSPITAL FOR SICK CHILDREN, published 2025)
